Paper PMC4957051, “Molecular Mechanism of Z α1-Antitrypsin Deficiency*” (The Journal of Biological Chemistry, 2016)

B1: α1-AT-S292C-T339C-E342A, reduced form (natural protein, human, UniProt P01009 25-418, looked up)
chain: EDPQGDAAQKTDTSHHDQDHPTFNKITPNLAEFAFSLYRQLAHQSNSTNIFFSPVSIATAFAMLSLGTKADTHDEILEGLNFNLTEIPEAQIHEGFQELLRTLNQPDSQLQLTTGNGLFLSEGLKLVDKFLEDVKKLYHSEAFTVNFGDTEEAKKQINDYVEKGTQGKIVDLVKELDRDTVFALVNYIFFKGKWERPFEVKDTEEEDFHVDQVTTVKVPMMKRLGMFNIQHSKKLSSWVLLMKYLGNATAIFFLPDEGKLQHLENELTHDIITKFLENEDRRSASLHLPKLCITGTYDLKSVLGQLGITKVFSNGADLSGVTEEAPLKLSKAVHKAVLCIDAKGTEAAGAMFLEAIPRSIPPEVKFNKPFVFLMIEQNTKSPLFMGKVVNPTQK
notes: α1-antitrypsin (α1-AT), human cDNA in pQE31, Pittsburgh backbone (M358R and C232S) with S292C, T339C and E342A; Same chain as m6, with the engineered disulfide reduced; also called α1-AT-SS-E342A (reduced); source: E. coli, purified; reduced form prepared
B2: α1-AT E342A (Pittsburgh backbone) (natural protein, human, UniProt P01009 25-418, looked up)
chain: EDPQGDAAQKTDTSHHDQDHPTFNKITPNLAEFAFSLYRQLAHQSNSTNIFFSPVSIATAFAMLSLGTKADTHDEILEGLNFNLTEIPEAQIHEGFQELLRTLNQPDSQLQLTTGNGLFLSEGLKLVDKFLEDVKKLYHSEAFTVNFGDTEEAKKQINDYVEKGTQGKIVDLVKELDRDTVFALVNYIFFKGKWERPFEVKDTEEEDFHVDQVTTVKVPMMKRLGMFNIQHSKKLSSWVLLMKYLGNATAIFFLPDEGKLQHLENELTHDIITKFLENEDRRSASLHLPKLSITGTYDLKSVLGQLGITKVFSNGADLSGVTEEAPLKLSKAVHKAVLTIDAKGTEAAGAMFLEAIPRSIPPEVKFNKPFVFLMIEQNTKSPLFMGKVVNPTQK
notes: α1-antitrypsin (α1-AT), human cDNA in pQE31, Pittsburgh backbone (M358R and C232S) with E342A; also called E342A mutant; source: E. coli, purified from the soluble fraction of the lysate

Legend:
thrombin = assay: rates and stoichiometries of protease inhibition; as described previously (ref. 48); each value the average of three independent measurements
activated factor X (FXa) = assay: as above
[1] = target: T1, recombinant wild type α1-antitrypsin (α1-AT Pittsburgh backbone, M358R and C232S) (human, UniProt P01009 25-418, M358R | C232S); assay: native gel or EMSA; peptide annealing: α1-AT variants (0.5 mg/ml) incubated with 100-fold molar excess of 6-mer peptide at 37 °C for different time intervals, then 8% native gel with 7 M urea; the binary complex resists urea; settings: both partners purified
T1 construct: α1-antitrypsin (α1-AT), human cDNA in pQE31, Pittsburgh backbone (M358R and C232S); probably the mature protein behind the tag; also called Wt; WT; source: E. coli, purified from the soluble fraction of the lysate

[2] = target: T2, α1-AT E342C (Pittsburgh backbone) (human, UniProt P01009 25-418, M358R | C232S | E342C); assay: as above; settings: both partners purified
T2 construct: α1-antitrypsin (α1-AT), human cDNA in pQE31, Pittsburgh backbone (M358R and C232S) with E342C; also called E342C mutant; source: E. coli, purified from the soluble fraction of the lysate

[3] = target: B2; assay: as above; settings: both partners purified
[4] = target: T3, α1-AT-S292C-T339C-E342A, oxidized form (disulfide between s5A and s6A) (human, UniProt P01009 25-418, M358R | C232S | S292C | T339C | E342A, disulfide bond linking s5A and s6A (Cys-292 and Cys-339)); assay: as above; settings: both partners purified
T3 construct: α1-antitrypsin (α1-AT), human cDNA in pQE31, Pittsburgh backbone (M358R and C232S) with S292C, T339C and E342A; Same chain as m7, with the engineered disulfide formed; also called α1-AT-SS-E342A (oxidized); source: E. coli, purified; oxidized form prepared

[5] = target: B1; assay: as above; settings: both partners purified
[6] = target: the molecule itself; assay: native gel or EMSA; thermal stability: α1-AT variants incubated at various temperatures in 10 mM Tris-HCl, pH 7.4, 0.1 M NaCl, 0.5 M urea for 30 min, then native gel

| Molecule | SI (stoichiometry of inhibition) (thrombin) | SI (stoichiometry of inhibition) (activated factor X (FXa)) | binding result [6] | other results |
| --- | --- | --- | --- | --- |
| recombinant wild type α1-antitrypsin (α1-AT Pittsburgh backbone, M358R and C232S) (from UniProt P01009 25-418) (natural protein) | 1.6 |  |  |  |
| α1-AT E342C-mod (E342C with Cys-342 chemically converted to a lysine-like residue) (from UniProt P01009 25-418) (natural protein) | 3.4 | 3.4 |  |  |
| α1-AT E342C (Pittsburgh backbone) (from UniProt P01009 25-418) (natural protein) | 3 | 3 |  |  |
| FLEAIG [6-mer peptide (FLEAIG) derived from the P7 to P2 sequence of the α1-AT reactive loop] |  |  |  | binding result [1]: binds; binding result [2]: binds; binding result [3]: binds; binding result [4]: binds; binding result [5]: binds |
| B1 |  |  | binds |  |
| B2 |  |  | binds |  |
